Results as given in patent US20240174741A1 (IMMUNOME, published 2024).

T1: IL-36b (human, UniProt Q9NZH7 1-164, limits assumed)
T1 sequence (looked up): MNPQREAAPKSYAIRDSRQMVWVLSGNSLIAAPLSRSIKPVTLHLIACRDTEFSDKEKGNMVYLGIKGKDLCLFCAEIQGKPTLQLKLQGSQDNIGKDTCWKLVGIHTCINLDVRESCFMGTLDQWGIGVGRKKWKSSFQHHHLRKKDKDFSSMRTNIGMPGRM

T2: IL-37 (human, UniProt Q9NZH6 1-218, limits assumed)
T2 sequence (looked up): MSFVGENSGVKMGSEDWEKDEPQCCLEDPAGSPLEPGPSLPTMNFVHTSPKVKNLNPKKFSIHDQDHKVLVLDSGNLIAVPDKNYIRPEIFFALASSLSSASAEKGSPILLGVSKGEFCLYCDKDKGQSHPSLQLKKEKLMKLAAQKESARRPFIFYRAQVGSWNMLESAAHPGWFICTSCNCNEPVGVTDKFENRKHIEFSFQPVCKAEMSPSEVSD

T3: IL-33 (human, UniProt O95760 1-270, limits assumed)
T3 sequence (looked up): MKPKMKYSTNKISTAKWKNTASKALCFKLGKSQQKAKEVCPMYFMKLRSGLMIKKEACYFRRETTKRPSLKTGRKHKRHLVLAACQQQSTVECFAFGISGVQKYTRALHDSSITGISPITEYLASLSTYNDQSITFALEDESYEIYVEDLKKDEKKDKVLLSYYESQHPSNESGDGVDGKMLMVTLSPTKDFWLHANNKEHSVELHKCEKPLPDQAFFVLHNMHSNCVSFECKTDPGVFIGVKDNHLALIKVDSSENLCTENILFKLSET

T4: IL-1α (human, UniProt P01583 1-271, limits assumed)
T4 sequence (looked up): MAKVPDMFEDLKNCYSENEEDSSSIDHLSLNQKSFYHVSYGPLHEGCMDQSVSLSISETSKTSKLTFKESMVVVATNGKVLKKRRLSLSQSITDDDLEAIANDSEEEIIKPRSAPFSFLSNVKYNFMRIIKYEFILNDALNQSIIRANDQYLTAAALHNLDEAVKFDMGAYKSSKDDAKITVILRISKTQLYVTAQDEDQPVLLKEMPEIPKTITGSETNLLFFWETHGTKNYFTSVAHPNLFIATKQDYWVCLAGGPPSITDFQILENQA

T5: IL-36Ra (human, UniProt Q9UBH0 1-155, limits assumed)
T5 sequence (looked up): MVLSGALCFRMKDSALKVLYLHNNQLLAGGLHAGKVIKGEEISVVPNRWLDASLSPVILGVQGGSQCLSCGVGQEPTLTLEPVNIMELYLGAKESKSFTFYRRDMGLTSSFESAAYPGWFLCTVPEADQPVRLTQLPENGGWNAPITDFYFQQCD

T6: IL-36g (human, UniProt Q9NZH8 1-169, limits assumed)
T6 sequence (looked up): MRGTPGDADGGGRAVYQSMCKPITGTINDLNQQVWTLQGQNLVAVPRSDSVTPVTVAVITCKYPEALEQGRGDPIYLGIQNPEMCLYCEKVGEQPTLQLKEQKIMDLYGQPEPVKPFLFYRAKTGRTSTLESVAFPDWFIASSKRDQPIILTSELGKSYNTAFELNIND

T7: IL-36a (human, UniProt Q9UHA7 1-158, limits assumed)
T7 sequence (looked up): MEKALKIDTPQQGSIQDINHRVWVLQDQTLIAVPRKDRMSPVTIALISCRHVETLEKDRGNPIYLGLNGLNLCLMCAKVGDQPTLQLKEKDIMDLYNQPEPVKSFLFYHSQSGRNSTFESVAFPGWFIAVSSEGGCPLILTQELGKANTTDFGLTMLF

T8: IL-18 (human, UniProt Q14116 1-193, limits assumed)
T8 sequence (looked up): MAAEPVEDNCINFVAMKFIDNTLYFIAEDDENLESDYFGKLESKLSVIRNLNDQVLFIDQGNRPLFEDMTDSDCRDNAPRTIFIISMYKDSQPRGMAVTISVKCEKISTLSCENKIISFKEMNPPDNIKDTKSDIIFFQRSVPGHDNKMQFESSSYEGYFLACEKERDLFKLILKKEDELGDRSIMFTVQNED

T9: human interleukin-38 (IL-38) (human, UniProt Q8WWZ1 1-152)
T9 construct: The Adipogen protein is called full length; also called IL1F10/IL38; IL1F10
T9 sequence (looked up): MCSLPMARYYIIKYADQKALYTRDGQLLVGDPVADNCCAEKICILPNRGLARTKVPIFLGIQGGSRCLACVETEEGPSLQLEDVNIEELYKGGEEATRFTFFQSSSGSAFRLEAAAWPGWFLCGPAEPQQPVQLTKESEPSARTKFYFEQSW


What was measured:
[1] = target: T1, IL-36b; experiment: CDI HuProt native protein microarray
Experimental: (§1) To confirm specificity to IL-38, several lead candidate antibodies (CD1-M3, CD1-M8, NZB-M8) were analyzed in a High-Spec Cross-reactivity Assay using native HuProt arrays (CDI Laboratories). […] of antibody was incubated overnight in a cold room, washed, and probed with anti-human secondary antibodies. Fluorescence intensity (F635) as an indicator of binding was measured for each spot. CDI software quantified the specificity of the antibody to each spot based on a Z-score. Z-score is defined as [F635−(Average F635 on array)]/(Standard deviation of F635 on array). S-score is defined as the difference between the Z-score of a given protein and the Z-score of the next highest protein.

[2] = target: T2, IL-37; experiment: CDI HuProt native protein microarray
Experimental: as §1

[3] = target: T10, IL-1β (human, UniProt P01584 1-269, limits assumed); experiment: CDI HuProt native protein microarray
Experimental: as §1

[4] = target: T3, IL-33; experiment: CDI HuProt native protein microarray
Experimental: as §1

[5] = target: T4, IL-1α; experiment: CDI HuProt native protein microarray
Experimental: as §1

[6] = target: T5, IL-36Ra; experiment: CDI HuProt native protein microarray
Experimental: as §1

[7] = target: T6, IL-36g; experiment: CDI HuProt native protein microarray
Experimental: as §1

[8] = target: T7, IL-36a; experiment: CDI HuProt native protein microarray
Experimental: as §1

[9] = target: T11, IL-1Ra (human, UniProt P18510 26-177, limits assumed); experiment: CDI HuProt native protein microarray
T11 sequence (P18510 26-177 limits assumed): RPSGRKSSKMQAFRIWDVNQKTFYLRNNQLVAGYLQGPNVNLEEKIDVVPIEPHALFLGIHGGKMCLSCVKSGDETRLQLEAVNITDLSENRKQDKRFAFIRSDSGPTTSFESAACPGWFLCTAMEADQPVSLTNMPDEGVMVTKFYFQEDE
Experimental: as §1

[10] = target: T8, IL-18; experiment: CDI HuProt native protein microarray
Experimental: as §1

[11] = target: T1, IL-36b; experiment: CDI HuProt native protein microarray, IL-1 family members
Experimental: as §1

[12] = target: T2, IL-37; experiment: as above
Experimental: as §1

[13] = target: T10, IL-1β; experiment: as above
Experimental: as §1

[14] = target: T3, IL-33; experiment: as above
Experimental: as §1

[15] = target: T4, IL-1α; experiment: as above
Experimental: as §1

[16] = target: T5, IL-36Ra; experiment: as above
Experimental: as §1

[17] = target: T6, IL-36g; experiment: as above
Experimental: as §1

[18] = target: T9, human interleukin-38 (IL-38); experiment: as above
Experimental: as §1

[19] = target: T7, IL-36a; experiment: as above
Experimental: as §1

[20] = target: T11, IL-1Ra; experiment: as above
Experimental: as §1

[21] = target: T8, IL-18; experiment: as above
Experimental: as §1

[22] = target: T9, human interleukin-38 (IL-38); experiment: SPR, IMM20130 captured on anti-human Fc CM5 chip, IL-38 as analyte, 25 C, 1:1 model
Experimental: Binding of IMM20130 to IL-38 (NovusBio, catalog number NBP2-22645) was quantified by surface plasmon resonance (SPR). Briefly, IMM20130 was diluted in SPR running buffer (10 mM HEPES, pH7.4, 150 mM NaCl, 0.0005% Tween-20, 0.2% bovine serum albumin) to final concentrations of 150 nM and 25 nM and captured at four different surface densities on an anti-human Fc coated CM5 sensor chip. Surface densities ranged from 600 to 3200 RU. IL-38 (NovusBio, catalog number NBP2-22645) was diluted in SPR running buffer to a concentration of 600 nM and a 3-fold dilution series was run across the four different IMM20130 density surfaces. Data were collected at 25° C. Data from all four surfaces were fitted to a 1:1 interaction model yielding the rate constants depicted in Table 2.

binding result [1]	binding result [2]	binding result [3]	binding result [4]	binding result [5]	binding result [6]	binding result [7]	binding result [8]	binding result [9]	binding result [10]	Z-score [11]	Z-score [12]	Z-score [13]	Z-score [14]	Z-score [15]	Z-score [16]	Z-score [17]	Z-score [18]	Z-score [19]	Z-score [20]	Binder	also measured
no binding	no binding	no binding	no binding	no binding	no binding	no binding	no binding	no binding	no binding	-0.087	-0.113	-0.143	-0.17	-0.147	-0.034	-0.143	34	0.033	-0.166	NZB-M8 (antibody, V domains shown, Mouse monoclonal from an NZB/w mouse hybridoma) VH: EVQLQQSGPELVKPGASVKISCKASGYSFTGYYMHWVKQSPEKSLEWIGVINPNTGGITYNQKFKAKATLNVDKSSSTAYMQLKSLTSEDSAVYYCARSMGVWGQGTLVTVSA VL: DIVMTQAAPSVSVTPGESVSISCRSSKSLLHSNGNTYLYWFLQRPGQSPQLLIYRMSNLASGVPDRFSGSGSGTAFTLRISRVEAEDVGVYYCMQYLEYPFTFGSGTKLEIK	Z-score [21]: -0.132
no binding	no binding	no binding	no binding	no binding	no binding	no binding	no binding	no binding	no binding	-0.01	-0.016	-0.017	-0.014	-0.014	-0.019	-0.008	142	0.012	0.003	CD1-M8 (antibody, V domains shown, Mouse monoclonal from a CD-1 mouse hybridoma) VH: EVQLQQSGPELVKPGASVKMSCKASGYTFTDYYIHWVKQSHGKGLEWIGYIFPNNGGNGYSQKFKGKATMTVDKSSSTAYMELRSLTSEDSAVYYCARGGYDAGFVYWGQGTLVTVSA VL: DIVMSQSPSSLAVSAGEKVTMSCKSSQSLFNSGARKNFLAWYQQKPGQSPKLLIYWASTRESGVPDRFTGSGSGTDFTLTISSVQAEDLAVYYCKQSYYLITFGAGTKLELK	Z-score [21]: -0.016
																				IMM20130 (antibody, human IgG1, kappa, V domains shown, also called PR087-29B5 (parent hybridoma antibody)) VH: QVQLVQSGAEVKKPGASVKVSCKASGYSFINYGITWVRQVPGQGLEWMGWISAYNVKTKYAPKFQGRVNMNTDTSTRTAYMELRSLRSDDTAVYYCARDRDYDFWSGSAFDIWGQGTMVTVSS VL: EIVLTQSPGTLSLSPGERVTLSCRASQSISTNYLAWYQQKPGQAPSLLIYGASSRATGIPDRFSGSGSGTDFTLTISRLEPEDFAVYYCQQYGSSPPRTFGQGTKLEIKR	Kd [22]: 13.6 nM; kon [22]: 4980 M⁻¹ s⁻¹
